Results reported in US20100081126, “PROCESS FOR DESIGNING INHIBITORS OF INFLUENZA VIRUS STRUCTURAL PROTEIN-1” (RUTGERS, THE STATE UNIVERSITY OF NEW JERSEY, published 2010).

Target: NS1A(1-73), NS1 protein N-terminal dsRNA-binding domain (Influenza A virus (A/Udorn/72)?, UniProt B4URE2 SEQ:1-73)
Sequence (B4URE2 1-73): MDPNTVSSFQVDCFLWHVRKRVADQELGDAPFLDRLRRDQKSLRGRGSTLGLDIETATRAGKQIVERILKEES

B1: 16-bp dsRNA (RR) (dsRNA)
RNA 1: CCAUCCUCUACAGGCG
RNA 2: CGCCUGUAGAGGAUGG
Kd: 748 nM
